Data on 17 molecules can be found in publication PMC10681739, “High-throughput data and modeling reveal insights into the mechanisms of cooperative DNA-binding by transcription factor proteins”.

The target of the data set is ETS1:RUNX1 (Homo sapiens, UniProt P14921;Q01196 full;full). The data set can be described thus: gcPBM; 1 nM ETS1 + 25 nM RUNX1, anti-ETS1 signal, normalised. As to conditions: tags: N-terminal GST (pDEST15), kept (PMC6008103); copies: 1;1; label: surface-attached array probe.
ETS1:RUNX1, sequence (P14921 whole entry, chain 1 of 2): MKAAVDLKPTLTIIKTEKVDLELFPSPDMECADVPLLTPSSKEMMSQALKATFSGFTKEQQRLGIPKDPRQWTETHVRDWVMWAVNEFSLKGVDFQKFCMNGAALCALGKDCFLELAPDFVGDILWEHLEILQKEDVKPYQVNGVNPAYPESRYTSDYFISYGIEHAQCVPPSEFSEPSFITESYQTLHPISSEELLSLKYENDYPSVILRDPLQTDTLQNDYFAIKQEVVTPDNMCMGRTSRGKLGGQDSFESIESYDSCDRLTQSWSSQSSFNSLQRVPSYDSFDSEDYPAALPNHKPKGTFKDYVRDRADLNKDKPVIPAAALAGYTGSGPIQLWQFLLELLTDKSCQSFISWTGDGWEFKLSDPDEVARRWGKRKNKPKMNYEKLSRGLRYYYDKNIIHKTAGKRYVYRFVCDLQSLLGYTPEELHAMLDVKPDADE
ETS1:RUNX1, sequence (Q01196 whole entry, chain 2 of 2): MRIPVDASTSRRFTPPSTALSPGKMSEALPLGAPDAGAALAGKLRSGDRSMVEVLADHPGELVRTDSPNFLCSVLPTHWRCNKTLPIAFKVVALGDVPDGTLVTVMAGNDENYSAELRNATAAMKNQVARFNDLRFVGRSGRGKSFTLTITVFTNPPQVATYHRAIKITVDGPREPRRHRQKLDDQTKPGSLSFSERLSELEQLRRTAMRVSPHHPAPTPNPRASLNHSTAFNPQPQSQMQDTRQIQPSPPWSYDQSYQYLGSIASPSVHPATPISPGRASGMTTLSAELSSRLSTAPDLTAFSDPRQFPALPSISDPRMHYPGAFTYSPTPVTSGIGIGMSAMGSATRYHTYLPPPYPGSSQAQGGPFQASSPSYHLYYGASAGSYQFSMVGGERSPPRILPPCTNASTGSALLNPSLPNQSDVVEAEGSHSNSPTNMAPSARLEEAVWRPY

B1: Table S2 A row 186 (dsDNA)
DNA 1: GAAGTGTGCTCTTCCGGTACCTGCGGTTCGTTGCGC
DNA 2: GCGCAACGAACCGCAGGTACCGGAAGAGCACACTTC
For B1, the binding signal was 7140 PBM fluorescence, median of replicate spots.

B2: Table S2 A row 638 (dsDNA)
DNA 1: CAAGGCACCAACGGATGTGGTATCTGGTGAGGGCTT
DNA 2: AAGCCCTCACCAGATACCACATCCGTTGGTGCCTTG
In the case of B2, the binding signal was 6740 PBM fluorescence, median of replicate spots.

B3: Table S2 A row 1086 (dsDNA)
DNA 1: TTTCTGACACTCTCAGGATGTGGGTTTTCACACTGT
DNA 2: ACAGTGTGAAAACCCACATCCTGAGAGTGTCAGAAA
For the molecule B3, the binding signal is 6500 PBM fluorescence, median of replicate spots.

B4: Table S2 A row 1358 (dsDNA)
DNA 1: CAGCCTTGCCGGAAGGCAGAGTTTGTGGTCAGACCG
DNA 2: CGGTCTGACCACAAACTCTGCCTTCCGGCAAGGCTG
For the molecule B4, the binding signal is 6650 PBM fluorescence, median of replicate spots.

B5: Table S2 A row 144 (dsDNA)
DNA 1: GCCACACTGGCGGAAATGGTGGTTACTGTTCGAGCC
DNA 2: GGCTCGAACAGTAACCACCATTTCCGCCAGTGTGGC
For B5, the binding signal was 6760 PBM fluorescence, median of replicate spots.

B6: Table S2 A row 1319 (dsDNA)
DNA 1: GAGGAACCCAAAGTAGGATGTGGTTTTGCAATTGGA
DNA 2: TCCAATTGCAAAACCACATCCTACTTTGGGTTCCTC
For the molecule B6, the binding signal was 6860 PBM fluorescence, median of replicate spots.

B7: Table S2 A row 1336 (dsDNA)
DNA 1: CACCTCGGGGGTTTCCGGTCCGTGGTTAGCTCCTTC
DNA 2: GAAGGAGCTAACCACGGACCGGAAACCCCCGAGGTG
In the case of B7, the binding signal is 6540 PBM fluorescence, median of replicate spots.

B8: Table S2 A row 866 (dsDNA)
DNA 1: CTGAAACAGGAAGCTGAGGGTGCGGTTGGGGGAGGA
DNA 2: TCCTCCCCCAACCGCACCCTCAGCTTCCTGTTTCAG
Take B8: the binding signal was 6680 PBM fluorescence, median of replicate spots.

B9: Table S2 A row 793 (dsDNA)
DNA 1: GTTCAGCAGGAAGTGGATGTGGATGTGTGGTTGCCA
DNA 2: TGGCAACCACACATCCACATCCACTTCCTGCTGAAC
Regarding B9, the binding signal is 7060 PBM fluorescence, median of replicate spots.

B10: Table S2 A row 123 (dsDNA)
DNA 1: TTTATCATGAATGCAGGATGTGGGCAGACTCACAGC
DNA 2: GCTGTGAGTCTGCCCACATCCTGCATTCATGATAAA
For B10, the binding signal was 6920 PBM fluorescence, median of replicate spots.

B11: Table S2 A row 104 (dsDNA)
DNA 1: TGGGGACCACTGTCAGGATGTGGTCACTGGAGTCAC
DNA 2: GTGACTCCAGTGACCACATCCTGACAGTGGTCCCCA
In the case of B11, the binding signal was 6580 PBM fluorescence, median of replicate spots.

B12: Table S2 A row 1610 (dsDNA)
DNA 1: ACACCTCAGGCAGGATGTGGTAGGGGTTGCCCCAGA
DNA 2: TCTGGGGCAACCCCTACCACATCCTGCCTGAGGTGT
B12: the binding signal was 6800 PBM fluorescence, median of replicate spots.

B13: Table S2 A row 1419 (dsDNA)
DNA 1: TTCACTTCCACCACTTCCTGTGGGTTTTGTTCATCC
DNA 2: GGATGAACAAAACCCACAGGAAGTGGTGGAAGTGAA
With B13, the binding signal was 7320 PBM fluorescence, median of replicate spots.

B14: Table S2 A row 601 (dsDNA)
DNA 1: CATTCAGTAAAAGGATGTGGTTTAGAACAGATGAAA
DNA 2: TTTCATCTGTTCTAAACCACATCCTTTTACTGAATG
B14: the binding signal was 6340 PBM fluorescence, median of replicate spots.

B15: Table S2 A row 364 (dsDNA)
DNA 1: AATGAAGGAGGGGCAGGATGTGGTCTTGGTGAATCA
DNA 2: TGATTCACCAAGACCACATCCTGCCCCTCCTTCATT
Take B15: the binding signal was 7160 PBM fluorescence, median of replicate spots.

B16: Table S2 A row 1604 (dsDNA)
DNA 1: GGTGTGTTCTGGGGAGGAAGTGGGTTTTCAGGTTGT
DNA 2: ACAACCTGAAAACCCACTTCCTCCCCAGAACACACC
On to B16, for which the binding signal was 7210 PBM fluorescence, median of replicate spots.

B17: Table S2 A row 1755 (dsDNA)
DNA 1: CAGAGCCAAACATGCGGAAGTGGTTACGTGTACTAG
DNA 2: CTAGTACACGTAACCACTTCCGCATGTTTGGCTCTG
Consider B17, for which the binding signal is 6770 PBM fluorescence, median of replicate spots.
